Key:
[1] = target: T1, 3A6 mutant FR1; assay: ELISA, human IgG1 antigen captured on anti-human IgG Fc;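 further: humanized antibodies bound to human IgG1 antigen captured at 1 µg/ml on anti-human IgG Fc plates, detected with anti-mouse IgG Fc/HRP, VSTB112 serving as negative control protein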
T1 construct: also called 3A6 FR1; 3A6-FR1 (VH4-34 FR1 mutant)
Procedure: (§1) The binding affinity of each humanized antibody for 3A6 antibody (containing VH4-34 antigen), 3A6-FR1 (VH4-34 FR1 mutant) and VSTB112 (negative control protein) was evaluated.
(§2) Plates were coated with 1 ug/ml of anti-human IgG Fc overnight at 4° C. Plates were washed thrice with PBS/0.05% Tween (PBST) before blocking with 5% BSA for 1 h at room temp (RT). Plates were then washed again before addition of 1 μg/ml of 3A6 (VH4-34 antigen), 3A6-FR1 (VH4-34 FR1 mutant) or VSTB112 (negative control protein) human IgG1 proteins. Plates were washed thrice. […] After washing the plates, anti-mouse IgG Fc/HRP diluted 1:5000 in 1% BSA was added and incubated for 1 h at RT. Plates were washed before detection using 1-step ELISA substrate.

[2] = target: T2, 3A6; assay: as above
T2 construct: also called 3A6 antibody (containing VH4-34 antigen); 3A6 (VH4-34 antigen)
T2 sequence (VH, as listed by the source, chain 1 of 2): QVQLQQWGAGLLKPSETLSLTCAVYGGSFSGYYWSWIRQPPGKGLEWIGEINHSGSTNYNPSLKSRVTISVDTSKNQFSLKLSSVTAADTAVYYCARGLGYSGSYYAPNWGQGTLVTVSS
T2 sequence (VL, as listed by the source, chain 2 of 2): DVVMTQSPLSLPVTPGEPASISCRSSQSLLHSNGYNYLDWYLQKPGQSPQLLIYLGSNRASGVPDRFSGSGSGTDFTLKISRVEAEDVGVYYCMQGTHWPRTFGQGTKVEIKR
Procedure: as §1, §2

T1 sequence (VH, as listed by the source, chain 1 of 2): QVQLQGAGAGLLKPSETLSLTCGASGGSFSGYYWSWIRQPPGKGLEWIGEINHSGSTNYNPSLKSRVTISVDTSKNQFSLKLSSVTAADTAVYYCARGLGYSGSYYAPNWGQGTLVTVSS
T1 sequence (VL, as listed by the source, chain 2 of 2): as the sequence (VL, as listed by the source, chain 2 of 2) above

| Binder | binding result [1] | EC50 [2] [nM] |
| --- | --- | --- |
| D011-7016-LD2 H4/L4 IgG2a (antibody, V domains shown) VH: QVQLQESGPGLVKPSETLSLTCTVSWDAITSGYWNWVRQPPGNKLEYMGYISYSGSAHYNPSLKSRITISRDTSKNQYSLKLSSVTAADTAVYYCASYSFAYWGQGTLVTVSS VL: EIVLTQSPDFQSVTPKEKVTITCRASQSIDNQLHWYQQKPDQSPKLLIKYASQSISGVPSRFSGSGSGTDFTLTISSLEAEDAATYFCQQSYGWPYTFGGGTKLEIKR | no binding (tested: 1 µg/ml (highest concentration)) | 0.0365 |
| D011-7016-LD2 H3/L4 IgG2a (antibody, V domains shown) VH: QVQLQESGPGLVKPSETLSLTCSVSWDAITSGYWNWVRQPPGNKLEYMGYISYSGSAHYNPSLKSRITISRDTSKNQYSLTLTSMTAADTALYYCASYSFAYWGQGTLVTVSS VL: EIVLTQSPDFQSVTPKEKVTITCRASQSIDNQLHWYQQKPDQSPKLLIKYASQSISGVPSRFSGSGSGTDFTLTISSLEAEDAATYFCQQSYGWPYTFGGGTKLEIKR | no binding (tested: 1 µg/ml (highest concentration)) | 0.0627 |
| D011-7016-LD2 H1/L1 IgG2a (antibody, V domains shown) VH: QVQLQESGPGLVKPSQTLSLTCTVSWDAITSGYWNWVRQHPGKGLEYMGYISYSGSAHYNPSLKSRITISRDTSKNQYSLKLSSVTAADTATYYCASYSFAYWGQGTLVTVSS VL: DIVMTQSPPSLSVTPGEPASLSCRASQSIDNQLHWYLQKPGQSPQLLINYASQSISGVTDRFSGSGSGTDFTLKISRVEAEDVGVYFCQQSYGWPYTFGGGTKVEIKR | no binding (tested: 1 µg/ml (highest concentration)) | 0.0446 |
| D011-7016-LD2 H1/L2 IgG2a (antibody, V domains shown) VH: QVQLQESGPGLVKPSQTLSLTCTVSWDAITSGYWNWVRQHPGKGLEYMGYISYSGSAHYNPSLKSRITISRDTSKNQYSLKLSSVTAADTATYYCASYSFAYWGQGTLVTVSS VL: DIVMTQSPPSLSVTPGESASISCRASQSIDNQLHWYLQKPGQSPQLLINYASQSISGVTDRFSGSGSGTDFTLKISRVEAEDVGMYFCQQSYGWPYTFGGGTKVEIKR | no binding (tested: 1 µg/ml (highest concentration)) | 0.0427 |
| D011-7016-LD2 H3/L2 IgG2a (antibody, V domains shown) VH: QVQLQESGPGLVKPSETLSLTCSVSWDAITSGYWNWVRQPPGNKLEYMGYISYSGSAHYNPSLKSRITISRDTSKNQYSLTLTSMTAADTALYYCASYSFAYWGQGTLVTVSS VL: DIVMTQSPPSLSVTPGESASISCRASQSIDNQLHWYLQKPGQSPQLLINYASQSISGVTDRFSGSGSGTDFTLKISRVEAEDVGMYFCQQSYGWPYTFGGGTKVEIKR | no binding (tested: 1 µg/ml (highest concentration)) | 0.053 |
| D011-7016-LD2 H4/L1 IgG2a (antibody, V domains shown) VH: QVQLQESGPGLVKPSETLSLTCTVSWDAITSGYWNWVRQPPGNKLEYMGYISYSGSAHYNPSLKSRITISRDTSKNQYSLKLSSVTAADTAVYYCASYSFAYWGQGTLVTVSS VL: DIVMTQSPPSLSVTPGEPASLSCRASQSIDNQLHWYLQKPGQSPQLLINYASQSISGVTDRFSGSGSGTDFTLKISRVEAEDVGVYFCQQSYGWPYTFGGGTKVEIKR | no binding (tested: 1 µg/ml (highest concentration)) | 0.0521 |
| D011-7016-LD2 H5/L3 IgG2a (antibody, V domains shown) VH: QVQLQESGPGLVKPSQTLSLTCTVSWDAITSGYWNWVRQHPGNKLEYMGYISYSGSAHYNPSLKSRITISRDTSKNQYSLKLSSVTAADTAVYYCASYSFAYWGQGTLVTVSS VL: DIQMTQSPSSLSASVGDRVTITCRASQSIDNQLHWYQQKPGKSPNLLINYASQSISGVPSRFSGSGSGTDFTLTISSLQPEDFATYFCQQSYGWPYTFGGGTKVEIKR | no binding (tested: 1 µg/ml (highest concentration)) | 0.282 |

— US20260274993A1 (HUMMINGBIRD BIOSCIENCE PTE, published 2026)
